Measurements as given in the supplement of paper PMC10126150.
± gives the standard deviation of the averaged measurements.

The sequences below were run on ATP (assay: switch fluorescence ratio, 500 uM ATP over buffer (Cy3 cluster intensity, sum of 5 cycles each) (fold (ratio)); higher = stronger signal-on switching upon ATP binding; sequences stand for … in TCGTCGGCAGCGTCAGATGTGTATAAGAGACAGTTTTTTTTTTTTTTTTTTTTTTTTT…TC). Details: aptamer strand: ATP DNA aptamer (quencher-CACCTGGGGGAGTATTGCGGAGGAAGG + anchor), 100 nM annealed; ATP concentration: 500 uM.
Procedure, shortened: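 For every switch-domain sequence, the fluorescence ratio is the mean of per-cluster values, each being summed target-cycle Cy3 intensity over summed buffer-cycle Cy3 intensity. Clusters outside 100-1000 RFU were excluded. On a modified Illumina MiSeq flow-cell, the Cy3-labelled switching-strand clusters were annealed to 100 nM quencher-labelled ATP aptamer, imaged in selection buffer and then after 15 min with 500 uM ATP at 22 °C. Five such cycles were run, with NaOH stripping and re-annealing between them.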
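Further: ATP exposure 15 min at 22 °C before imaging.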

**Q.** With ACCATGTATC as the sequence, how does the switch fluorescence ratio read?
**A.** 0.998 ± 0.026

**Q.** For ATGTTGATCT, which switch fluorescence ratio is on record?
**A.** 0.983 ± 0.024

**Q.** For TTGCGGGGGT, which switch fluorescence ratio is on record?
**A.** 1 ± 0.054

**Q.** With TGGTTCCCAG as the sequence, how does the switch fluorescence ratio read?
**A.** 1.04 ± 0.031

**Q.** How did the switch fluorescence ratio turn out when TTTCAATTTT was run?
**A.** 0.996 ± 0.026

**Q.** TTTGAGTGTT was tested. Which switch fluorescence ratio did it give?
**A.** 0.985 ± 0.011

**Q.** CCTACCGTGG was tested. Which switch fluorescence ratio did it give?
**A.** 1.31 ± 0.11

**Q.** GCGTAAGTG was tested. Which switch fluorescence ratio did it give?
**A.** 0.986 ± 0.041

**Q.** With TCTATCGTTA as the sequence, how does the switch fluorescence ratio read?
**A.** 1.04 ± 0.03

**Q.** For TTCTGTTTCC, which switch fluorescence ratio is on record?
**A.** 1.12 ± 0.13

**Q.** With TTGAGGGAGG as the sequence, how does the switch fluorescence ratio read?
**A.** 1 ± 0.034

**Q.** Which switch fluorescence ratio does the source give for AAGTGCTTTT here?
**A.** 1.01 ± 0.052

**Q.** With CATGGTATGT as the sequence, how does the switch fluorescence ratio read?
**A.** 1.01 ± 0.038

**Q.** Which switch fluorescence ratio does the source give for AAGTTGTGGG here?
**A.** 0.967 ± 0.043

**Q.** TGCGGAATAT was tested. Which switch fluorescence ratio did it give?
**A.** 1.14 ± 0.064

**Q.** For GGCCGGGACT, which switch fluorescence ratio is on record?
**A.** 0.987 ± 0.062

**Q.** CCTGTGGACG was tested. Which switch fluorescence ratio did it give?
**A.** 0.914 ± 0.048

**Q.** For CGTTGTTACA, which switch fluorescence ratio is on record?
**A.** 1.04 ± 0.018

**Q.** How did the switch fluorescence ratio turn out when CGGAGGAATT was run?
**A.** 1.2 ± 0.11

**Q.** Which switch fluorescence ratio does the source give for ATATTATTGA here?
**A.** 0.9818 ± 0.0049

**Q.** For TTGTGCTGGA, which switch fluorescence ratio is on record?
**A.** 1.04 ± 0.029

**Q.** Which switch fluorescence ratio does the source give for GCAAAGAGGG here?
**A.** 1.04 ± 0.012

**Q.** With GCACTTTTTG as the sequence, how does the switch fluorescence ratio read?
**A.** 0.99 ± 0.049

**Q.** Which switch fluorescence ratio does the source give for GTTTGTTTAG here?
**A.** 1.011 ± 0.006

**Q.** How did the switch fluorescence ratio turn out when GGGCGGCTGT was run?
**A.** 1 ± 0.033

**Q.** Which switch fluorescence ratio does the source give for GGATTGTTTA here?
**A.** 1 ± 0.014

**Q.** Which switch fluorescence ratio does the source give for TAGGCACCTG here?
**A.** 1.0679 ± 0.00092

**Q.** How did the switch fluorescence ratio turn out when GGCCAAGGAT was run?
**A.** 1.01 ± 0.028

**Q.** CTGGGCGTGC was tested. Which switch fluorescence ratio did it give?
**A.** 0.997 ± 0.03

**Q.** For TTAATAGGCC, which switch fluorescence ratio is on record?
**A.** 0.974 ± 0.036

**Q.** GAGCCGGGCC was tested. Which switch fluorescence ratio did it give?
**A.** 0.99 ± 0.023

**Q.** Which switch fluorescence ratio does the source give for AGAAGGGGTA here?
**A.** 1.01 ± 0.046

**Q.** For GATGCTGTGC, which switch fluorescence ratio is on record?
**A.** 1.0328 ± 0.00033

**Q.** Which switch fluorescence ratio does the source give for ATGCTAGGGT here?
**A.** 0.9905 ± 0.0055

**Q.** With ATGATGGGCT as the sequence, how does the switch fluorescence ratio read?
**A.** 0.9654 ± 0.0059

**Q.** TCATTGTGAG was tested. Which switch fluorescence ratio did it give?
**A.** 1 ± 0.038

**Q.** GGGTTCTCTC was tested. Which switch fluorescence ratio did it give?
**A.** 0.98 ± 0.011

**Q.** How did the switch fluorescence ratio turn out when TTTGCAAATT was run?
**A.** 1.03 ± 0.039

**Q.** How did the switch fluorescence ratio turn out when GTCGGGAGCC was run?
**A.** 0.967 ± 0.018

**Q.** With GAATACGGGG as the sequence, how does the switch fluorescence ratio read?
**A.** 1.06 ± 0.044

**Q.** CTTATACTGG was tested. Which switch fluorescence ratio did it give?
**A.** 1.02 ± 0.011

**Q.** Which switch fluorescence ratio does the source give for CTTAAATCTG here?
**A.** 0.974 ± 0.084

**Q.** With ATGTTATTGC as the sequence, how does the switch fluorescence ratio read?
**A.** 1 ± 0.022

**Q.** How did the switch fluorescence ratio turn out when GCAGCAAGCG was run?
**A.** 1.64 ± 0.028

**Q.** GGTCGCTTGG was tested. Which switch fluorescence ratio did it give?
**A.** 1.04 ± 0.061

**Q.** CGACTGGCTG was tested. Which switch fluorescence ratio did it give?
**A.** 1.01 ± 0.049

**Q.** For TATGGATTTT, which switch fluorescence ratio is on record?
**A.** 0.987 ± 0.016

**Q.** How did the switch fluorescence ratio turn out when CGTGGGGGGC was run?
**A.** 1.01 ± 0.02

**Q.** ATCGAGTTAG was tested. Which switch fluorescence ratio did it give?
**A.** 0.978 ± 0.012

**Q.** With ATCGCCAGGC as the sequence, how does the switch fluorescence ratio read?
**A.** 1.014 ± 0.0044

**Q.** For ATGGTTATCT, which switch fluorescence ratio is on record?
**A.** 1.01 ± 0.034

**Q.** How did the switch fluorescence ratio turn out when TAATTTTGAG was run?
**A.** 0.9957 ± 0.0029

**Q.** For CGCCACTGTG, which switch fluorescence ratio is on record?
**A.** 1.06 ± 0.044

**Q.** Which switch fluorescence ratio does the source give for GAGGGGTAAG here?
**A.** 1 ± 0.015

**Q.** For TGTGGGGATG, which switch fluorescence ratio is on record?
**A.** 1.01 ± 0.02

**Q.** How did the switch fluorescence ratio turn out when CCGAGTGGGT was run?
**A.** 1.44 ± 0.57

**Q.** CCATAGGGGA was tested. Which switch fluorescence ratio did it give?
**A.** 1.0339 ± 0.00023

**Q.** Which switch fluorescence ratio does the source give for TTGGGGGTTA here?
**A.** 1.02 ± 0.019

**Q.** Which switch fluorescence ratio does the source give for CAGAGGGGGT here?
**A.** 0.988 ± 0.017

**Q.** How did the switch fluorescence ratio turn out when CTTTGGAACT was run?
**A.** 1.06 ± 0.065

**Q.** How did the switch fluorescence ratio turn out when TGCAGCTTGT was run?
**A.** 1.0186 ± 0.00048

**Q.** With ATCACTGGGT as the sequence, how does the switch fluorescence ratio read?
**A.** 0.9976 ± 0.0051

**Q.** With TTATGAGTCG as the sequence, how does the switch fluorescence ratio read?
**A.** 0.979 ± 0.032

**Q.** For AAAGGAACTC, which switch fluorescence ratio is on record?
**A.** 0.999 ± 0.092

**Q.** Which switch fluorescence ratio does the source give for CTTAGTATAT here?
**A.** 1 ± 0.024

**Q.** With CGCCGTGTCA as the sequence, how does the switch fluorescence ratio read?
**A.** 1.02 ± 0.068

**Q.** With GAGATTTTTT as the sequence, how does the switch fluorescence ratio read?
**A.** 1.018 ± 0.0091

**Q.** How did the switch fluorescence ratio turn out when TCTACCTACA was run?
**A.** 1.33 ± 0.051

**Q.** For CGCTCGGGTT, which switch fluorescence ratio is on record?
**A.** 1.003 ± 0.0025

**Q.** How did the switch fluorescence ratio turn out when GGGGGCAACT was run?
**A.** 0.997 ± 0.017

**Q.** GCAAAAGGGG was tested. Which switch fluorescence ratio did it give?
**A.** 0.977 ± 0.027

**Q.** For GGGATCGGGA, which switch fluorescence ratio is on record?
**A.** 0.995 ± 0.013

**Q.** TTTTAGGGAA was tested. Which switch fluorescence ratio did it give?
**A.** 1.03 ± 0.035

**Q.** With TTTGGGGGTG as the sequence, how does the switch fluorescence ratio read?
**A.** 1.02 ± 0.038

**Q.** Which switch fluorescence ratio does the source give for AAGGGGCGGG here?
**A.** 0.952 ± 0.011

**Q.** With CCAGGGTATA as the sequence, how does the switch fluorescence ratio read?
**A.** 1.03 ± 0.032

**Q.** How did the switch fluorescence ratio turn out when CGACATGAAT was run?
**A.** 1.037 ± 0.0082

**Q.** Which switch fluorescence ratio does the source give for AATTGGGGGA here?
**A.** 0.979 ± 0.031

**Q.** With ACATGACGGG as the sequence, how does the switch fluorescence ratio read?
**A.** 1.06 ± 0.015

**Q.** GTAGTACAAG was tested. Which switch fluorescence ratio did it give?
**A.** 0.986 ± 0.026

**Q.** Which switch fluorescence ratio does the source give for TAACCGGATT here?
**A.** 1.1 ± 0.053

**Q.** With TCACGGACAG as the sequence, how does the switch fluorescence ratio read?
**A.** 1.3 ± 0.057

**Q.** How did the switch fluorescence ratio turn out when TCATGGGGTA was run?
**A.** 0.9617 ± 0.004

**Q.** For ATTGAAAAAC, which switch fluorescence ratio is on record?
**A.** 1.03 ± 0.022

**Q.** How did the switch fluorescence ratio turn out when GTTATGGGGG was run?
**A.** 1.04 ± 0.013

**Q.** For TGTCGACTGT, which switch fluorescence ratio is on record?
**A.** 0.987 ± 0.042

**Q.** Which switch fluorescence ratio does the source give for ATCTTGGCTG here?
**A.** 0.983 ± 0.03

**Q.** How did the switch fluorescence ratio turn out when GATTGTATGG was run?
**A.** 1.02 ± 0.025

**Q.** How did the switch fluorescence ratio turn out when ATTGTGGGAA was run?
**A.** 0.9843 ± 0.0028

**Q.** Which switch fluorescence ratio does the source give for AGAGGAATTC here?
**A.** 1 ± 0.013

**Q.** Which switch fluorescence ratio does the source give for GTGACATTAA here?
**A.** 0.998 ± 0.03

**Q.** How did the switch fluorescence ratio turn out when ATCAGTGGTT was run?
**A.** 0.974 ± 0.013

**Q.** AGCAGGGGCT was tested. Which switch fluorescence ratio did it give?
**A.** 1.025 ± 0.0069

**Q.** With AGCTTCGTGG as the sequence, how does the switch fluorescence ratio read?
**A.** 0.971 ± 0.019

**Q.** How did the switch fluorescence ratio turn out when GGCGACCTGG was run?
**A.** 0.993 ± 0.021

**Q.** How did the switch fluorescence ratio turn out when CCCAATGATC was run?
**A.** 1.52 ± 0.043

**Q.** With TTAGTGGCTA as the sequence, how does the switch fluorescence ratio read?
**A.** 1.019 ± 0.0087

**Q.** For TCCATGTTTT, which switch fluorescence ratio is on record?
**A.** 1.14 ± 0.22

**Q.** How did the switch fluorescence ratio turn out when TTATTAAATA was run?
**A.** 0.98 ± 0.016

**Q.** For AAATGGGCTG, which switch fluorescence ratio is on record?
**A.** 1 ± 0.09
